Measured values published in patent publication US20030186258.

Experiments:
[1] = target: T1, Z-L-tyrosine-L-lysine-L-arginine-p-nitroanilide
T1 chain: YKR

[2] = target: fusion protein (peptide portion)-(Lys-Arg)-(h-GH), P01241
Chain of fusion protein (peptide portion)-(Lys-Arg)-(h-GH), P01241 (P01241 whole entry, looked up, the tested form may be a part): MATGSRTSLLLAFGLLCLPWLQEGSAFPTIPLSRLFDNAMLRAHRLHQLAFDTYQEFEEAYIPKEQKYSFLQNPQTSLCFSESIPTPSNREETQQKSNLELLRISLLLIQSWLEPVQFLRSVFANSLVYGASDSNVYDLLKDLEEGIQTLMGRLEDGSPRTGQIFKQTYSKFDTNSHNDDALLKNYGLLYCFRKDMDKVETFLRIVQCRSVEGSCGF

B1: ss-Kex2-C613 (soluble secreted Kex2 endoprotease of Saccharomyces cerevisiae truncated at amino acid 613) (protein)
chain: APPMDSSLLPVKEAEDKLSINDPLFERQWHLVNPSFPGSDINVLDLWYNNITGAGVVAAIVDDGLDYENEDLKDNFCAEGSWDFNDNTNLPKPRLSDDYHGTRCAGEIAAKKGNNFCGVGVGYNAKISGIRILSGDITTEDEAASLIYGLDVNDIYSCSWGPADDGRHLQGPSDLVKKALVKGVTEGRDSKGAIYVFASGNGGTRGDNCNYDGYTNSIYSITIGAIDHKDLHPPYSEGCSAVMAVTYSSGSGEYIHSSDINGRCSNSHGGTSAAAPLAAGVYTLLLEANPNLTWRDVQYLSILSAVGLEKNADGDWRDSAMGKKYSHRYGFGKIDAHKLIEMSKTWENVNAQTWFYLPTLYVSQSTNSTEETLESVITISEKSLQDANFKRIEHVTVTVDIDTEIRGTTTVDLISPAGIISNLGVVRPRDVSSEGFKDWTFMSVAHWGENGVGDWKIKVKTTENGHRIDFHSWRLKLFGESIDSSKTETFVFGNDKEEVE
For B1, the KM [1] was 56.8 µM, the kcat [1] was 2280 s⁻¹ and the kcat/KM (µM^-1 × min^-1) [1] was 12400.

B2: ss-Kex1-C600 (soluble secreted Kex1 endoprotease of Kluyveromyces lactis truncated at amino acid 600) (protein)
chain: LPIGDSSMEQIQNARILFNISDPLFDQQWHLINPNYPGNDVNVTGLWKENITGYGVVAALVDDGLDYENEDLKDNFCVEGSWDFNDNNPLPKPRLKDDYHGTRCAGEIAAFRNDICGVGVAYNSKVSGIRILSGQITAEDEAASLIYGLDVNDIYSCSWGPSDDGKTMQAPDTLVKKAIIKGVTEGRDAKGALYVFASGNGGMFGDSCNFDGYTNSIFSITVGAIDWKGLHPPYSESCSAVMVVTYSSGSGNYIKTTDLDEKCSNTHGGTSAAAPLAAGIYTLVLEANPNLTWRDVQYLSILSSEEINPHDGKWQDTAMGKRYSHTYGFGKLDAYNIVHMAKSWINVNPQGWLYLPTIVEKQSISNSDEVIESTVSVSAEEFKQNNLKRLEHVTVTVDIDAPYRGHVLVDLISPDGVTSTLATARRLDKNRYGFQNWTFMSVAHWGSSGVGSWKLKVKSTHDNEIVTLKSWRLKMFGETIDAKKAKVISYGNDKEDAE
For B2, the “reaction yield of hydrolysis (RP-HPLC)” value [2] was “a reaction yield higher than 95%”, the “specificity of the hydrolysis (NH2-terminal sequence of the reaction product)” value [2] was “gave the expected sequence for h-GH” and the KM [1] was 61.4 µM. The kcat [1] was 3070 s⁻¹, the kcat/KM (µM^-1 × min^-1) [1] was 3000 and the specific activity [1] was “a specific activity of approximately 100 U/mg”.
